Starred links: 1 amine or outer side, 2 acyl side, 3 side chain; linkers in the order of their positions; H or OH if unused. Non-standard residues stand in square brackets, D forms with d. TyrEtNAc = (2S)-3-[4-(2-acetamidoethoxy)phenyl]-2-amino-propanoic acid, CC(=O)NCCOc1ccc(C[C@H](N[*:1])C(=O)[*:2])cc1; 2PyrimAla = (2S)-2-amino-3-(pyrimidin-2-yl)propanoic acid, O=C([C@H](Cc1ncccn1)N[*:1])[*:2]; F4ptCCA = trans-4-[4-(2-amino-2-carboxyethyl)phenyl]cyclohexanecarboxylic acid; Phe(4-(cis-4-COOH-cHex)) = N[C@@H](Cc1ccc([C@H]2CC[C@@H](C(=O)O)CC2)cc1)C(=O)O; dPro(4R-(4-pyridylmethyl)) = O=C(O)[C@H]1C[C@@H](Cc2ccncc2)CN1; Ala(piperidin-4-yl) = O=C([C@H](CC1CCN([*:3])CC1)N[*:1])[*:2]; Trp(βS-Me,4-F) = C[C@@H](c1c[nH]c2cccc(F)c12)[C@H](N)C(=O)O; Bip(4'-COOH) = N[C@@H](Cc1ccc(-c2ccc(C(=O)O)cc2)cc1)C(=O)O; Ala(1-bicyclo(1.1.1)pentyl) = N[C@@H](CC12CC(C1)C2)C(=O)O; dPro(4R-Bzl(4-F)) = O=C(O)[C@H]1C[C@@H](Cc2ccc(F)cc2)CN1; Ala(pyrimidin-5-yl) = N[C@@H](Cc1cncnc1)C(=O)O; Phe(4-COOH) = N[C@@H](Cc1ccc(C(=O)O)cc1)C(=O)O; Ala(4-Pyridazinyl) = N[C@@H](Cc1ccnnc1)C(=O)O; Ala(2-pyrazinyl) = N[C@@H](Cc1cnccn1)C(=O)O; Pro(cis-4-F) = O=C(O)[C@@H]1C[C@H](F)CN1; Ala(4-THP) = N[C@@H](CC1CCOCC1)C(=O)O; 4Pal = N[C@@H](Cc1ccncc1)C(=O)O; d(αMeS) = C[C@@](N)(CO)C(=O)O; Orn = NCCC[C@H](N)C(=O)O; Dab = NCC[C@H](N)C(=O)O; Dap = NC[C@H](N)C(=O)O; Aib = CC(C)(N)C(=O)O
Target: Recombinant human IL-1β (BioLegend 579404) (human, UniProt P01584 117-269)
Experiment: cell-based or functional assay

Row | Binder | MRC5 IC50 [nM]
1 | cyclo([Bip(4'-COOH)][4Pal][Phe(4-COOH)]G[Pro(cis-4-F)][Trp(βS-Me,4-F)][Aib]EW[Aib][Ala(4-Pyridazinyl)]Q[Dab]G[dPro(4R-Bzl(4-F))]) (SMILES C[C@@H](c1c[nH]c2cccc(F)c12)[C@@H]1NC(=O)[C@@H]2C[C@H](F)CN2C(=O)CNC(=O)[C@H](Cc2ccc(C(=O)O)cc2)NC(=O)[C@H](Cc2ccncc2)NC(=O)[C@H](Cc2ccc(-c3ccc(C(=O)O)cc3)cc2)NC(=O)[C@H]2C[C@@H](Cc3ccc(F)cc3)CN2C(=O)CNC(=O)[C@H](CCN)NC(=O)[C@H](CCC(N)=O)NC(=O)[C@H](Cc2ccnnc2)NC(=O)C(C)(C)NC(=O)[C@H](Cc2c[nH]c3ccccc23)NC(=O)[C@H](CCC(=O)O)NC(=O)C(C)(C)NC1=O) [SEQ ID NO: 115] | 0.023
2 | cyclo([F4ptCCA][4Pal][Phe(4-COOH)]G[Pro(cis-4-F)][Trp(βS-Me,4-F)][Aib]EW[Aib][Ala(pyrimidin-5-yl)]Q[Dab]G[dPro(4R-Bzl(4-F))]) [SEQ ID NO: 114] | 0.035
3 | cyclo([Bip(4'-COOH)][4Pal][Phe(4-COOH)]G[Pro(cis-4-F)][Trp(βS-Me,4-F)][Aib]SW[d(αMeS)][Ala(pyrimidin-5-yl)]Q[Dab]G[dPro(4R-(4-pyridylmethyl))]) (SMILES C[C@@H](c1c[nH]c2cccc(F)c12)[C@@H]1NC(=O)[C@@H]2C[C@H](F)CN2C(=O)CNC(=O)[C@H](Cc2ccc(C(=O)O)cc2)NC(=O)[C@H](Cc2ccncc2)NC(=O)[C@H](Cc2ccc(-c3ccc(C(=O)O)cc3)cc2)NC(=O)[C@H]2C[C@@H](Cc3ccncc3)CN2C(=O)CNC(=O)[C@H](CCN)NC(=O)[C@H](CCC(N)=O)NC(=O)[C@H](Cc2cncnc2)NC(=O)[C@@](C)(CO)NC(=O)[C@H](Cc2c[nH]c3ccccc23)NC(=O)[C@H](CO)NC(=O)C(C)(C)NC1=O) [SEQ ID NO: 111] | 0.019
4 | cyclo([Bip(4'-COOH)][Ala(4-Pyridazinyl)][Phe(4-COOH)]G[Pro(cis-4-F)][Trp(βS-Me,4-F)][Aib]EW[Aib][Ala(pyrimidin-5-yl)]Q[Dab]G[dPro(4R-Bzl(4-F))]) (SMILES C[C@@H](c1c[nH]c2cccc(F)c12)[C@@H]1NC(=O)[C@@H]2C[C@H](F)CN2C(=O)CNC(=O)[C@H](Cc2ccc(C(=O)O)cc2)NC(=O)[C@H](Cc2ccnnc2)NC(=O)[C@H](Cc2ccc(-c3ccc(C(=O)O)cc3)cc2)NC(=O)[C@H]2C[C@@H](Cc3ccc(F)cc3)CN2C(=O)CNC(=O)[C@H](CCN)NC(=O)[C@H](CCC(N)=O)NC(=O)[C@H](Cc2cncnc2)NC(=O)C(C)(C)NC(=O)[C@H](Cc2c[nH]c3ccccc23)NC(=O)[C@H](CCC(=O)O)NC(=O)C(C)(C)NC1=O) [SEQ ID NO: 116] | 0.04
5 | cyclo([Bip(4'-COOH)][Ala(1-bicyclo(1.1.1)pentyl)][Phe(4-COOH)]G[Pro(cis-4-F)][Trp(βS-Me,4-F)][Aib]SW[Aib][Orn]Q[Dab]G[dPro(4R-Bzl(4-F))]) (SMILES C[C@@H](c1c[nH]c2cccc(F)c12)[C@@H]1NC(=O)[C@@H]2C[C@H](F)CN2C(=O)CNC(=O)[C@H](Cc2ccc(C(=O)O)cc2)NC(=O)[C@H](CC23CC(C2)C3)NC(=O)[C@H](Cc2ccc(-c3ccc(C(=O)O)cc3)cc2)NC(=O)[C@H]2C[C@@H](Cc3ccc(F)cc3)CN2C(=O)CNC(=O)[C@H](CCN)NC(=O)[C@H](CCC(N)=O)NC(=O)[C@H](CCCN)NC(=O)C(C)(C)NC(=O)[C@H](Cc2c[nH]c3ccccc23)NC(=O)[C@H](CO)NC(=O)C(C)(C)NC1=O) [SEQ ID NO: 110] | 0.038
6 | cyclo([TyrEtNAc][4Pal][Phe(4-COOH)]G[Pro(cis-4-F)][Trp(βS-Me,4-F)][Aib]EW[Aib][Ala(pyrimidin-5-yl)]Q[Dap]G[dPro(4R-Bzl(4-F))]) (SMILES CC(=O)NCCOc1ccc(C[C@@H]2NC(=O)[C@H]3C[C@@H](Cc4ccc(F)cc4)CN3C(=O)CNC(=O)[C@H](CN)NC(=O)[C@H](CCC(N)=O)NC(=O)[C@H](Cc3cncnc3)NC(=O)C(C)(C)NC(=O)[C@H](Cc3c[nH]c4ccccc34)NC(=O)[C@H](CCC(=O)O)NC(=O)C(C)(C)NC(=O)[C@H]([C@@H](C)c3c[nH]c4cccc(F)c34)NC(=O)[C@@H]3C[C@H](F)CN3C(=O)CNC(=O)[C@H](Cc3ccc(C(=O)O)cc3)NC(=O)[C@H](Cc3ccncc3)NC2=O)cc1) [SEQ ID NO: 11] | 0.045
7 | cyclo([Bip(4'-COOH)][4Pal][Phe(4-COOH)]G[Pro(cis-4-F)][Trp(βS-Me,4-F)][Aib]EW[Aib][Ala(piperidin-4-yl)]Q[Dab]G[dPro(4R-Bzl(4-F))]) (SMILES C[C@@H](c1c[nH]c2cccc(F)c12)[C@@H]1NC(=O)[C@@H]2C[C@H](F)CN2C(=O)CNC(=O)[C@H](Cc2ccc(C(=O)O)cc2)NC(=O)[C@H](Cc2ccncc2)NC(=O)[C@H](Cc2ccc(-c3ccc(C(=O)O)cc3)cc2)NC(=O)[C@H]2C[C@@H](Cc3ccc(F)cc3)CN2C(=O)CNC(=O)[C@H](CCN)NC(=O)[C@H](CCC(N)=O)NC(=O)[C@H](CC2CCNCC2)NC(=O)C(C)(C)NC(=O)[C@H](Cc2c[nH]c3ccccc23)NC(=O)[C@H](CCC(=O)O)NC(=O)C(C)(C)NC1=O) [SEQ ID NO: 119] | 0.016
8 | cyclo([Bip(4'-COOH)][Ala(1-bicyclo(1.1.1)pentyl)][Phe(4-COOH)]G[Pro(cis-4-F)][Trp(βS-Me,4-F)][Aib]SW[Aib][Ala(pyrimidin-5-yl)]Q[Orn]G[dPro(4R-(4-pyridylmethyl))]) (SMILES C[C@@H](c1c[nH]c2cccc(F)c12)[C@@H]1NC(=O)[C@@H]2C[C@H](F)CN2C(=O)CNC(=O)[C@H](Cc2ccc(C(=O)O)cc2)NC(=O)[C@H](CC23CC(C2)C3)NC(=O)[C@H](Cc2ccc(-c3ccc(C(=O)O)cc3)cc2)NC(=O)[C@H]2C[C@@H](Cc3ccncc3)CN2C(=O)CNC(=O)[C@H](CCCN)NC(=O)[C@H](CCC(N)=O)NC(=O)[C@H](Cc2cncnc2)NC(=O)C(C)(C)NC(=O)[C@H](Cc2c[nH]c3ccccc23)NC(=O)[C@H](CO)NC(=O)C(C)(C)NC1=O) [SEQ ID NO: 109] | 0.036
9 | cyclo([Bip(4'-COOH)][Ala(1-bicyclo(1.1.1)pentyl)][Phe(4-COOH)]G[Pro(cis-4-F)][Trp(βS-Me,4-F)][Aib]SW[d(αMeS)][Ala(pyrimidin-5-yl)]Q[Dab]G[dPro(4R-(4-pyridylmethyl))]) (SMILES C[C@@H](c1c[nH]c2cccc(F)c12)[C@@H]1NC(=O)[C@@H]2C[C@H](F)CN2C(=O)CNC(=O)[C@H](Cc2ccc(C(=O)O)cc2)NC(=O)[C@H](CC23CC(C2)C3)NC(=O)[C@H](Cc2ccc(-c3ccc(C(=O)O)cc3)cc2)NC(=O)[C@H]2C[C@@H](Cc3ccncc3)CN2C(=O)CNC(=O)[C@H](CCN)NC(=O)[C@H](CCC(N)=O)NC(=O)[C@H](Cc2cncnc2)NC(=O)[C@@](C)(CO)NC(=O)[C@H](Cc2c[nH]c3ccccc23)NC(=O)[C@H](CO)NC(=O)C(C)(C)NC1=O) [SEQ ID NO: 112] | 0.018
10 | cyclo([Phe(4-(cis-4-COOH-cHex))][4Pal][Phe(4-COOH)]G[Pro(cis-4-F)][Trp(βS-Me,4-F)][Aib]EW[Aib][Ala(2-pyrazinyl)]Q[Dab]G[dPro(4R-Bzl(4-F))]) (SMILES C[C@@H](c1c[nH]c2cccc(F)c12)[C@@H]1NC(=O)[C@@H]2C[C@H](F)CN2C(=O)CNC(=O)[C@H](Cc2ccc(C(=O)O)cc2)NC(=O)[C@H](Cc2ccncc2)NC(=O)[C@H](Cc2ccc([C@H]3CC[C@@H](C(=O)O)CC3)cc2)NC(=O)[C@H]2C[C@@H](Cc3ccc(F)cc3)CN2C(=O)CNC(=O)[C@H](CCN)NC(=O)[C@H](CCC(N)=O)NC(=O)[C@H](Cc2cnccn2)NC(=O)C(C)(C)NC(=O)[C@H](Cc2c[nH]c3ccccc23)NC(=O)[C@H](CCC(=O)O)NC(=O)C(C)(C)NC1=O) [SEQ ID NO: 117] | 0.027
11 | cyclo([Bip(4'-COOH)][4Pal][Phe(4-COOH)]G[Pro(cis-4-F)][Trp(βS-Me,4-F)][Aib]EW[Aib][2PyrimAla]Q[Dab]G[dPro(4R-Bzl(4-F))]) (SMILES C[C@@H](c1c[nH]c2cccc(F)c12)[C@@H]1NC(=O)[C@@H]2C[C@H](F)CN2C(=O)CNC(=O)[C@H](Cc2ccc(C(=O)O)cc2)NC(=O)[C@H](Cc2ccncc2)NC(=O)[C@H](Cc2ccc(-c3ccc(C(=O)O)cc3)cc2)NC(=O)[C@H]2C[C@@H](Cc3ccc(F)cc3)CN2C(=O)CNC(=O)[C@H](CCN)NC(=O)[C@H](CCC(N)=O)NC(=O)[C@H](Cc2ncccn2)NC(=O)C(C)(C)NC(=O)[C@H](Cc2c[nH]c3ccccc23)NC(=O)[C@H](CCC(=O)O)NC(=O)C(C)(C)NC1=O) [SEQ ID NO: 113] | 0.018
12 | cyclo([Bip(4'-COOH)][4Pal][Phe(4-COOH)]G[Pro(cis-4-F)][Trp(βS-Me,4-F)][Aib]EW[Aib][Ala(4-THP)]Q[Dab]G[dPro(4R-Bzl(4-F))]) (SMILES C[C@@H](c1c[nH]c2cccc(F)c12)[C@@H]1NC(=O)[C@@H]2C[C@H](F)CN2C(=O)CNC(=O)[C@H](Cc2ccc(C(=O)O)cc2)NC(=O)[C@H](Cc2ccncc2)NC(=O)[C@H](Cc2ccc(-c3ccc(C(=O)O)cc3)cc2)NC(=O)[C@H]2C[C@@H](Cc3ccc(F)cc3)CN2C(=O)CNC(=O)[C@H](CCN)NC(=O)[C@H](CCC(N)=O)NC(=O)[C@H](CC2CCOCC2)NC(=O)C(C)(C)NC(=O)[C@H](Cc2c[nH]c3ccccc23)NC(=O)[C@H](CCC(=O)O)NC(=O)C(C)(C)NC1=O) [SEQ ID NO: 118] | 0.016
